What was measured:
[1] = target: sperm immobilization factor (SIF) from Staphylococcus aureus (Staphylococcus aureus)
[2] = target: SIF-binding receptor from Proteus mirabilis (PM-SBR) (Proteus mirabilis); test: ITC; SIF (500 μg/ml) in the syringe, 10 μl injections into PM-SBR (200 μg/ml) in the vial, PBS as reference, 37°C, stirring 200 rpm, 800 s between injections; micro reaction calorimeter

Substance | motility of mouse spermatozoa exposed for 20 seconds to SIF (70 μg) pre-incubated with PM-SBR (10-200 μg): amount of PM-SBR that alleviated the immobilization [1] [µg] | viability of mouse spermatozoa (eosin staining) with SIF (150 μg) pre-incubated with PM-SBR (50-300 μg): minimum effective concentration (MEC) of PM-SBR reducing sperm mortality caused by SIF [1] [µg] | Ka [2] [M⁻¹] | dH [2] [kcal/mol]
SIF-binding receptor from Proteus mirabilis (PM-SBR) (natural protein) | 130 | 270 |  | 
sperm immobilization factor (SIF) from Staphylococcus aureus (natural protein) |  |  | 1220 | 2.29
